Results reported in paper doi:10.1101/2020.02.24.961524.

Target: N-terminally SNAP-tagged GLP-1R (glucagon-like peptide-1 receptor) (UniProt P43220)
Assay: FRET or BRET

Chain of UniProt P43220 (P43220 24-463): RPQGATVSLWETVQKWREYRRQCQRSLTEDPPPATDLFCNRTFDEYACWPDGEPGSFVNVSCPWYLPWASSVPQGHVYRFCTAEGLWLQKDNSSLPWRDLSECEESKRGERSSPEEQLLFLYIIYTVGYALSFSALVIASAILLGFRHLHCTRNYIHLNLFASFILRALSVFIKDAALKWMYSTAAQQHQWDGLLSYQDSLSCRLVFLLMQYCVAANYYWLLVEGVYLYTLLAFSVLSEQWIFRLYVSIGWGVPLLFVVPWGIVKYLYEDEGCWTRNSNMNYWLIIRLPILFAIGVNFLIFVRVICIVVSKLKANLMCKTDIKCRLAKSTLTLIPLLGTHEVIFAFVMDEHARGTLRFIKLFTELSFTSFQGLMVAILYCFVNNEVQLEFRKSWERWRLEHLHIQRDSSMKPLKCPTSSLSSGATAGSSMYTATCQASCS

**Q.** “exendin-4 (from UniProt P26349 48-87) (peptide)” was tested. Which fold affinity relative to GLP-1 did it give?
**A.** Its fold affinity relative to GLP-1 is 5 fold.
